Reference: the supplement of paper PMC9170038

System: MS2 coat protein
Assay: apparent KD of MS2 coat protein; designed switch direction (-1 OFF switch, 1 ON switch): 1; higher = weaker reporter binding
Summary of the method: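 The reported apparent KD is a per-design median over clusters, from curve fits of normalised cluster fluorescence. Protein titrations used SNAP-549-labelled MS2 coat protein, doubled from 0.7 or 1.5 nM to 3 µM, in Tris-HCl pH 7.5 buffer with KCl, MgCl2, BSA, DTT, tRNA and Tween-20, with no input, 200 uM small-molecule ligand, or an oligonucleotide input. The RNA switches were transcribed on Illumina chips by stalled E. coli RNA polymerase.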

[1] = input ligand: microRNA oligo, concentration not stated
[2] = Eterna round: R95, input ligand: FMN 200 uM
[3] = Eterna round: R95, input ligand: microRNA oligo, concentration not stated
[4] = Eterna round: R95, input ligand: none

Row | Sequence | apparent KD of MS2 coat protein (input ligand: FMN 200 uM) [nM] | apparent KD of MS2 coat protein [1] [nM] | apparent KD of MS2 coat protein (input ligand: none) [nM] | apparent KD of MS2 coat protein [2] [nM] | apparent KD of MS2 coat protein [3] [nM] | apparent KD of MS2 coat protein [4] [nM]
1 | GCCGGCUGAUGAGGAUAUGGCACCUUAUUGGUGCCAGAAGGCAUGUCAAUUGACAUGAGGAUCACCCAUGUAUUAUAGUUGGCG [salish99_SSNG1_r04_604] (Eterna round: R96, puzzle: Same State NG 1) | 117 | 233 | 326 |  |  | 
2 | GCUCGGAUGAUGACCCACAUGAGGAUCACCCAUGUGCGUGGGCAGGAUAUCUAGAUUAAGGAUGUAGAGAAGGGUCUACCGAGC [SameState NG3 #31] (Eterna round: R96, puzzle: Same State NG 3) | 964 | 318 | 407 |  |  | 
3 | GGUGGGUUGCUACCAACACAUGAGGAUCACCCAUGUUUUGGGAAGGAUAUGGUACCUAUUUGGUACCAGAAGGUCCCGUUGGUG [salish99_SSNG3_r04_706] (Eterna round: R96, puzzle: Same State NG 3) | 37.6 | 40.4 | 63.6 |  |  | 
4 | GCUCGAUGAUAGGCCUACAUGAGGAUCACCCAUGUAAGUGGGCAGGAUAUCUACAUGCAGAAUGUAGAGAAGGGCCCGUCGAGC [SameState NG3 #55] (Eterna round: R96, puzzle: Same State NG 3) | 20.5 | 66 | 83.9 |  |  | 
5 | GAAUAGUUGAGAGGAUAUCUAUUAUAAAAGGAUAGAGAAGGUUUUAACAUGAGGAUCACCCAUGUAGGACUAUAUAUGUGAAUA [Parity 100 - Jieux - Same State NG 1] (Eterna round: R96, puzzle: Same State NG 1) | 16.2 | 13.6 | 16.1 |  |  | 
6 | GGUGGGUUACUACCAACACAUGAGGAUCACCCAUGUUUUGGGAAGGAUAUGGUACCUAUUUGGUACCAGAAGGUCCGGUUGGUG [salish99_SSNG3_r04_704] (Eterna round: R96, puzzle: Same State NG 3) | 47.8 | 100 | 100 |  |  | 
7 | UCAAGCGUUUGGCUCGUCUUAUGUUUUGUACAUGAGGAUCACCCAUGUUUUGUACGAUCCAGUUAGAUGGUAUUUUG [JR_SHM208A_Sub038] (puzzle: Sensor for hsa-mir-208a) |  |  |  | 39.8 | 121 | 54.6
8 | AUUAGUGGUGGAGGAUAUGGGAAAGGAAGUGUACUAGAAGGCCACCGCCCUCUAGCACAUGAGGAUCACCCAUGUAUAGAGCCC [PowerStrip SSNG 1.14] (Eterna round: R96, puzzle: Same State NG 1) | 243 | 25.8 | 88.2 |  |  | 
9 | ACAUGAGACCAAGGAUAUUUUGUACCUACAUGUGACAUGAGGAUCACCCAUGUGGUAAGUAUGAGAGAGAAGGUGGAGAUAUGU [Equivalence 23 - Jieux - Same State NG 2] (Eterna round: R96, puzzle: Same State NG 2) | 34.4 | 21.5 | 36.5 |  |  | 
10 | AUAAAACAUGAGGAUCACCCAUGUCAACAAAGUCGAGGAUAUGGGCAAAUAAAAUAAGUACCAGAAGGCGAAUAAU [salish99_ss1_r3_017] (puzzle: Same State 1) |  |  |  | 34.1 | 106 | 108
11 | UUAAUAAUGAUAGGAUAUACAUGAGGAAUUCUCGUAGAAGGAUCAUGACAUGAGGAUCACCCAUGUAUCGCUCGAUAGAGCGUA [Mat - Same State NG 1 - JL mod - D35] (Eterna round: R96, puzzle: Same State NG 1) | 447 | 149 | 326 |  |  | 
12 | AGCUGUGGAAAACUAUAGCAAAAGUAUGUACAUGAGGAUCACCCAUGUCAUGUACAAGCUUUUUGCUCGUCUUAAAA [ak 5 mod of one Eli's designs.] (puzzle: Sensor for hsa-mir-208a) |  |  |  | 42.4 | 18.7 | 90.4
13 | GGGAGAGCCGCAGGAUAUGGUGAGGAUUACCCACUAGAAGGGUGGACAUGAGAAUCGAACAUGAGGAUCACCCAUGUUCUGAGG (Eterna round: R96, puzzle: Same State NG 1) | 200 | 219 | 386 |  |  | 
14 | AGGCUCAGACGAGGAUAUAUGUCUCGAGCUUCGGCUCGAGACAUGAGGAUCACCCAUGUAAUAACAUAGAAGGCGUCUGAGCCA [SSNG2/1-A1] (Eterna round: R96, puzzle: Same State NG 2) | 15.7 | 24.9 | 37 |  |  | 
15 | GCUGGAAACCACAUGAGGAUCACCCAUGUUCCGGAAACGGCGCAGGAUAUCUGUCCGAAAAGGUCAGAGAAGGGUGGAACCAGC [Fiskers NG3ss - 81] (Eterna round: R96, puzzle: Same State NG 3) | 232 | 136 | 164 |  |  | 
16 | GGAAUAUGAUGUUACAUGAGGAUCACCCAUGUAGUGACAACUAAGGAUAUCUGAAAGGAAGGAGAGGAGAAGGUAGGAUCAUAA [AK SSNG3-V2-14] (Eterna round: R96, puzzle: Same State NG 3) | 20 | 24.6 | 33.3 |  |  | 
17 | GUUACAUGAGGAUCACCCAUGUAUGUGUGGGAGUAAGUGUCUUAGGAUAUCUAGUAUUUUAUUUAAGAGAAGGAAGAUUGUUGU [JMF's solution 59] (Eterna round: R96, puzzle: Same State NG 3) | 130 | 93.7 | 112 |  |  | 
18 | GCCGUAAUAACAUGAGGAUCACCCAUGUGCGCGAGAGUGGAUGAGGAUAUCGAUGGGUUUCCCGUCGAGAAGGCGUGGGUCGGC [JL SSNG3 3.98] (Eterna round: R96, puzzle: Same State NG 3) | 28 | 24.5 | 38.5 |  |  | 
19 | GUGGCCCAGGCACAGGAUAUGUUUCUCGUAACAUGAGGAUCACCCAUGUGCCUAUGAGAUAUAAUGCAGAAGGGUGCACGCCACG [Mat - Same State 2 - Mod of UCT - D80] (puzzle: Same State 2) |  |  |  | 16.2 | 68.2 | 60.9
20 | UGAAUGAUGUUAGGAUAUACAUGAGGAAUCCUCGUAGAAGGAACAUGACAUGAGGAUCACCCAUGUAGCGCUCCGUAGAGCGCA [JL SSNG1 1.19] (Eterna round: R96, puzzle: Same State NG 1) | 210 | 30.4 | 146 |  |  | 
21 | AGCUAUUAAUCAGGAUAUAGGGACAUGAGGAUCACCCAUGUAUACAUGAUGAAAUGUGGUCACGUCUAGAAGGGAUUACUAACA [SameState NG2 #41] (Eterna round: R96, puzzle: Same State NG 2) | 150 | 184 | 262 |  |  | 
22 | AUUAAUAAUCUAGGAUAUCACGUCGAUUAGACGUGAGAAGGAGAUCAUAACAUGAGGAUCACCCAUGUAUUACAUGAAGUUAAU [SSNG1/7-B2] (Eterna round: R96, puzzle: Same State NG 1) | 27.5 | 28.8 | 38.1 |  |  | 
23 | AUGAAGAAUUAAGGAUAUUGAUUACAUAUGUUUAACAUGAGGAUCACCCAUGUGGGUUGCGGUAUCGAGAAGGUAAAUUACUAG [JL SSNG2 1.48] (Eterna round: R96, puzzle: Same State NG 2) | 150 | 99.6 | 128 |  |  | 
24 | AUCAAAAGAGGAGGAUAUGCAGAGGAUCACCCUGUAGAAGGCCACAGAGGAGGAUAUGCAGAGGAUCACCCUGUAGAAGGCCUC [pwkr ssNG DX.16] (Eterna round: R96, puzzle: Same State NG 1) | 37.3 | 156 | 189 |  |  | 
25 | ACAUGAGAGUUAGGAUAUCUUGUACCUACAUGUGACAUGAGGAUCACCCAUGUGGUAAGUAUGAGGGAGAAGGGACAGAUAUGU [Equivalence 44 - Jieux - Same State NG 2] (Eterna round: R96, puzzle: Same State NG 2) | 67.4 | 54.4 | 84.7 |  |  | 
26 | GGAAUAUUUACAGGAUAUGAGUUGUAAAGUCGAUCAGAAGGGUAGGUGUUUUGCACGGUGUGUUACAUGAGGAUCACCCAUGUU [SameState NG1 #22] (Eterna round: R96, puzzle: Same State NG 1) | 74.1 | 66.2 | 123 |  |  | 
27 | GGAUGAUUAACAGGAUAUCAUUUGUAAAUUCGAUGAGAAGGGUUGAUUACUUACACGACGUGUUACAUGAGGAUCACCCAUGUU [SameState NG1 #6] (Eterna round: R96, puzzle: Same State NG 1) | 372 | 385 | 548 |  |  | 
28 | UUAAUGAAGUAAGGAUAUACAUGAGGAUUUCUCGUAGAAGGUACUAUACAUGAGGAUCACCCAUGUGCCGGUCCGUAGACUGGA [JL SSNG1 1.05] (Eterna round: R96, puzzle: Same State NG 1) | 342 | 297 | 607 |  |  | 
29 | CAAGGGUACGGAUUAGUACAUGAGGAUCACCCAUGUAUCCGACAGGAUAUCAUGUAAGAAGCCAGUGAGAAGGGUCUAGUCCAA [Eternabot solution 43] (Eterna round: R96, puzzle: Same State NG 3) | 367 | 205 | 460 |  |  | 
